B1: DNA endonuclease SAE2 (Saccharomyces cerevisiae), P46946 (parent)
chain: MVTGEENVYLKSSLSILKELSLDELLNVQYDVTTLIAKRVQALQNRNKCVLEEPNSKLAEILCHEKNAPQQSSQTSAGPGEQDSEDFILTQFDEDIKKESAEVHYRNENKHTVQLPLVTMPPNRHKRKISEFSSPLNGLNNLSDLEDCSDTVIHEKDNDKENKTRKLLGIELENPESTSPNLYKNVKDNFLFDFNTNPLTKRAWILEDFRPNEDIAPVKRGRRKLERFYAQVGKPEDSKHRSLSVVIESQNSDYEFAFDNLRNRSKSPPGFGRLDFPSTQEGNEDKKKSQEIIRRKTKYRFLMASNNKIPPYEREYVFKREQLNQIVDDGCFFWSDKLLQIYARC
partner: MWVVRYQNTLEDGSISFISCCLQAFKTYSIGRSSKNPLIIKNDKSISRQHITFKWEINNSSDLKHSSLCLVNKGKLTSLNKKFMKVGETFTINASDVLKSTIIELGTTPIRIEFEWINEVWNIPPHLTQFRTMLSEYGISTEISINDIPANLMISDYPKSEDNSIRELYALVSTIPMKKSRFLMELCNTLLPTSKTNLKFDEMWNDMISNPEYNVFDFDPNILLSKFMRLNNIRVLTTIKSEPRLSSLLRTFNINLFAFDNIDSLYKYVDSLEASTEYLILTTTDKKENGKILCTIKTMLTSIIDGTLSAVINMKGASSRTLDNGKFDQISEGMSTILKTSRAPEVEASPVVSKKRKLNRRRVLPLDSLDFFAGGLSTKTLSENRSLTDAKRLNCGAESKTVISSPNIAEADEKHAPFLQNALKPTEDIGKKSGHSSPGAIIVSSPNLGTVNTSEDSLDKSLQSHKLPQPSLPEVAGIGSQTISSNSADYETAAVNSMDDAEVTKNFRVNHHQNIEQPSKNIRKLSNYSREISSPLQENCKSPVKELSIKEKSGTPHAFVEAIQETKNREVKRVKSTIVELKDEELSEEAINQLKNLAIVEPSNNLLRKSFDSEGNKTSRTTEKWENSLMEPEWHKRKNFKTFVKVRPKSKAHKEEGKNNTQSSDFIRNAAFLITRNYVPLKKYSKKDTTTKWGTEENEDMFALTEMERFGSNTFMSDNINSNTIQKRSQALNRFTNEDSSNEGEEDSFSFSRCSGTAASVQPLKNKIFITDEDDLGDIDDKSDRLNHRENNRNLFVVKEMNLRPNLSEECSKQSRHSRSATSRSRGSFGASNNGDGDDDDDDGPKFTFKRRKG

Variants of: B1
Details: with xrs2_yeast XRS2, P33301

| Variant | effect of a mutation on the interaction |
| --- | --- |
| MVTGEENVYLKSSLSILKELSLDELLNVQYDVTTLIAKRVQALQNRNKCVLEEPNSKLAEILCHEKNAPQQSSQTSAGPGEQDSEDFILTQFDEDIKKESAEVHYRNENKHTVQLPLVTMPPNRHKRKISEFSSPLNGLNNLSDLEDCSDTVIHEKDNDKENKTRKLLGIELENPESTSPNLYKNVKDNFLFDFNTNPLTKRAWILEDFRPNEDIAPVKRGRRKLERFYAQVGKPEDSKHRSLSVVIESQNSDYEFAFDNLRNRSKSPPGFGRLDFAAAQEGNEDKKKSQEIIRRKTKYRFLMASNNKIPPYEREYVFKREQLNQIVDDGCFFWSDKLLQIYARC [P277A;S278A;T279A] | decreasing interaction strength |
| MVTGEENVYLKSSLSILKELSLDELLNVQYDVTTLIAKRVQALQNRNKCVLEEPNSKLAEILCHEKNAPQQSSQTSAGPGEQDSEDFILTQFDEDIKKESAEVHYRNENKHTVQLPLVTMPPNRHKRKISEFSSPLNGLNNLSDLEDCSDTVIHEKDNDKENKTRKLLGIELENPESTSPNLYKNVKDNFLFDFNTNPLTKRAWILEDFRPNEDIAPVKRGRRKLERFYAQVGKPEDSKHRSLSVVIESQNSDYEFAFDNLRNRSKSPPDFGRLDFPSTQEGNEDKKKSQEIIRRKTKYRFLMASNNKIPPYEREYVFKREQLNQIVDDGCFFWSDKLLQIYARC [G270D] | decreasing interaction strength |
| MVTGEENVYLKSSLSILKELSLDELLNVQYDVTTLIAKRVQALQNRNKCVLEEPNSKLAEILCHEKNAPQQSSQTSAGPGEQDSEDFILTQFDEDIKKESAEVHYRNENKHTVQLPLVTMPPNRHKRKISEFSSPLNGLNNLSDLEDCSDTVIHEKDNDKENKTRKLLGIELENPESTSPNLYKNVKDNFLFDFNTNPLTKRAWILEDFRPNEDIAPVKRGRRKLERFYAQVGKPEDSKHRSLSVVIESQNSDYEFAFDNLRNRSKAAPGFGRLDFPSTQEGNEDKKKSQEIIRRKTKYRFLMASNNKIPPYEREYVFKREQLNQIVDDGCFFWSDKLLQIYARC [S267A;P268A] | disrupting interaction strength |
